Here are results for three molecules from patent US20040171074A1, “Structures of substrate binding pockets of SCF complexes” (MOUNT SINAI HOSPITAL, priority 2002, published 2004).

One test has as its system phospho-Sic1. Description: P-Sic1 pull down: in vitro capture of phospho-Sic1 on immobilized wild type or mutant Cdc4-GST-Skp1, anti-Sic1 immunoblot. The format is binding, yeast. As to conditions: Sic1 phosphorylated with Cln2-Cdc28, captured onto GST-Skp1/Cdc4 resin, anti-Sic1 detection. As to the method:
(§1) Mutational analysis of the CPD binding surface. Mutants were tested in vitro by ability to bind phosphorylated Sic1 and then captured onto GST-Skp1/Cdc4 resin and detected with anti-sic1 antibody. Mutants were tested in vivo by ability to degrade GAL1-SIC1 or various phosphorylation mutants. Sites are as follows: 3=Thr 33, Thr 45, Ser 76; 4=Thr 5, Thr 33, Thr 45, Ser 76; 5=Thr 2, Thr 5, Thr 33, Thr 45, Ser 76; 6=Thr 2, Thr 5, Thr 33, Thr 45, Ser 69, Ser 76; 7=Thr 2, Thr 5, Thr 33, Thr 45, Ser 69, Ser 76, Ser 80. GAL1-SIC1 plasmids were transformed into a cdc4Δ strain containing a copy of CDC4 on a TRP1 ARS CEN plasmid. Strains were incubated for 2 days at 30° C.
Bacterially expressed His6-Sic1 was phosphorylated with Cln2-Cdc28 kinase purified from baculovirus infected Sf9 cells as described before (Nature paper). 1 ug of WT or mutant Cdc4-GST-Skp1, immoblized on GSH-Sepharose resin, was incubated with 0.5 ug phospho-Sic1 at 4 C for 1 h and washed 4 times. Captured complexes were resolved on SDS-PAGE and Sic1 visualized by anti-Sic1 Western blotting and ECL. For IEF-2D analysis, several Sic1 phosphorylation reactions were carried out for different time periods to obtain a spectrum of Sic1 that were phosphorylated at different numbers of its nine CDK sites. This pool of phospho-Sic1 (2.5 ug) was incubated with 5 μg of WT or mutant Cdc4-GST-Skp1 as described above. Different phosphorylation states of Sic1 were separated by denaturing isoelectric focusing (IEF)-2D gel electrophoresis and visualized by anti-Sic1 Western blotting and ECL. IEF was performed using pH 3-10NL Immobiline gel strips and IPGphore IEF system (Amersham pharmacia).
(§2) Cdc4 functional assays. CDC4 mutant alleles were assessed for complementation of a cdc4A strain in a plasmid shuffle assay (Nash et al., 2001). Sensitivity to SIC1 dosage was determined by transformation with pMT837 (GAL1-SIC1) or pMT767 (GAL1-SIC1^T33V) and plating on glucose medium or galactose medium. For in vitro capture of phospho-Sic1 by Cdc4, 0.5 μg of bacterially-expressed ^HIS6Sic1 was phosphorylated with immobilized Cln2-Cdc28 kinase from baculovirus-infected Sf9 cells and then incubated with 1 μg of immobilized wild type or mutant Cdc4^263-744-GST-Skp1, at 4° C. for 1 hr, washed 4 times and visualized by anti-Sic1 immunoblot. For isoelectric focusing (IEF)-2D gel analyses, an evenly distributed pool of phospho-Sic1 isoforms was generated by combining different time points in a Sic1 phosphorylation reaction. 2.5 μg of the phospho-Sic1 pool was bound to 5 μg of immobilized wild type or mutant Cdc4^1-744-GST-Skp1. Captured isoforms were separated by denaturing IEF-2D gel electrophoresis using pH3-10NL Immobiline gel strips (Amersham) and visualized by anti-Sic1 immunoblot. Alternatively, the pool of phospho-Sic1 isoforms was incubated in solution with a ubiquitination reaction mix containing ATP, ubiquitin, yeast E1, Cdc34 and either wild type or mutant SCF^Cdc4 complex, composed of a 1:1 ratio of bacterial Cdc4-GST-Skp1 and insect cell-produced Cdc53-Rbx1, at 30° C. for 1 h as previously described (Nash et al., 2001).

The subject of another test is cdc4Δ strain. Description: plasmid shuffle assay: complementation of a cdc4Δ strain by CDC4 alleles. It is filed as cell-based, yeast. As to conditions: viability of cdc4Δ strain on 5-FOA, 2 days at 30° C. How it is done: (§3) All mutants on a TRP1 ARS CEN plasmid were transformed into a cdc4Δ strain (MT 1259) containing a wildtype copy of CDC4 on a URA3 ARS CEN plasmid. Cells were plated on either Trp^−Ura^− or 5-FOA medium for 2 days at 30° C. Viable cells on 5-FOA were grown in Trp medium and transformed with either wild type GAL1-SIC1, GAL1-SIC T45A, or GAL1-SIC T33V on a LEU2 ARS CEN pasmid. Cells were then plated on Leu- Trp-plates containing either glucose or galactose and incubated for 2 days at 30° C.
as §2

Test [1] concerns cdc4Δ strain overexpressing SIC1. Put plainly: sensitivity to SIC1 dosage: GAL1-SIC1 overexpression in strains bearing CDC4 alleles. The format is cell-based, yeast. As to conditions: for gal Sic1T33V: GAL1-SIC1 T33V (partially stabilized Sic1); for gal Sic1T33V / gal Sic1T45A / gal Sic1 wt: galactose, 2 days at 30° C.; for gal Sic1T45A: GAL1-SIC1 T45A; for gal Sic1 wt: GAL1-SIC1 wild type. As to the method: as §1, §3
Since the cell viability assay nay be masking subtle functional roles for the conserved Cdc4 residues, function was assayed in vivo under more stringent conditions in which Sic1 wt or the stabilized mutants, Sic1 (T33V) or Sic1(T45A) are over-expressed under a galactose promoter. This should amplify defects in cdc4 function. Under these conditions, Trp 717, Tyr 548 and the double mutant K404D/R443D are lethal showing that these residues are in fact important for functions
as §2

B1: Y548F: mutant cdc4 polypeptide (protein)
chain: MGSFPLAEFPLRDIPVPYSYRVSGGIASSGSVTALVTAAGTHRNSSTAKTVETEDGEEDIDEYQRKRAAGSGESTPERSDFKRVKHDNHKTLHPVNLQNTGAASVDNDGLHNLTDISNDAEKLLMSVDDGSAAPSTLSVNMGVASHNVAAPTTVNAATITGSDVSNNVNSATINNPMEEGALPLSPTASSPGTTTPLAKTTKTINNNNNIADLIESKDSIISPEYLSDEIFSAINNNLPHAYFKNLLFRLVANMDRSELSDLGTLIKDNLKRDLITSLPFEISLKIFNYLQFEDIINSLGVSQNWNKIIRKSTSLWKKLLISENFVSPKGFNSLNLKLSQKYPKLSQQDRLRLSFLENIFILKNWYNPKFVPQRTTLRGHMTSVITCLQFEDNYVITGADDKMIRVYDSINKKFLLQLSGHDGGVWALKYAHGGILVSGSTDRTVRVWDIKKGCCTHVFKGHNSTVRCLDIVEYKNIKYIVTGSRDNTLHVWKLPKESSVPDHGEEHDYPLVFHTPEENPYFVGVLRGHMASVRTVSGHGNIVVSGSFDNTLIVWDVAQMKCLYILSGHTDRIYSTIYDHERKRCISASMDTTIRIWDLENIWNNGECSYATNSASPCAKILGAMYTLQGHTALVGLLRLSDKFLVSAAADGSIRGWDANDYSRKFSYHHTNLSAITTFYVSDNILVSGSENQFNIYNLRSGKLVHANILKDADQIWSVNFKGKTLVAAVEKDGQSFLEILDFSKASKINYVSNPVNSSSSSLESISTSLGLTRTTIIP
As for B1, the P-Sic1 pull down result is “no bind” in the test with phospho-Sic1 and “compromised” in the test with phospho-Sic1 (listed as Tyr 548). For the same molecule, the values for the shuffle entry in the test with cdc4Δ strain, with cdc4Δ strain (listed as Tyr 548) and in the test with cdc4Δ strain (listed as Tyr548) were “alive”, “fractional” and “did not cause loss of viability”, respectively. Also, the “gal Sic1T33V” value in test [1] is recorded as “dead”; in test [1] (listed as Tyr548), “dosage sensitivity”. In test [1], the “gal Sic1T45A” value is reported as “dead”. Also, the “gal Sic1 wt” value in test [1] is recorded as “alive”. For the same molecule, the “viability / sensitivity to increased SIC1 dosage” value in test [1] (Sic1 wt or stabilized Sic1(T33V) or Sic1(T45A) over-expressed under a galactose promoter) is listed as “lethal”.

B2: T441I/T465I: double mutant cdc4 polypeptide (protein)
chain: MGSFPLAEFPLRDIPVPYSYRVSGGIASSGSVTALVTAAGTHRNSSTAKTVETEDGEEDIDEYQRKRAAGSGESTPERSDFKRVKHDNHKTLHPVNLQNTGAASVDNDGLHNLTDISNDAEKLLMSVDDGSAAPSTLSVNMGVASHNVAAPTTVNAATITGSDVSNNVNSATINNPMEEGALPLSPTASSPGTTTPLAKTTKTINNNNNIADLIESKDSIISPEYLSDEIFSAINNNLPHAYFKNLLFRLVANMDRSELSDLGTLIKDNLKRDLITSLPFEISLKIFNYLQFEDIINSLGVSQNWNKIIRKSTSLWKKLLISENFVSPKGFNSLNLKLSQKYPKLSQQDRLRLSFLENIFILKNWYNPKFVPQRTTLRGHMTSVITCLQFEDNYVITGADDKMIRVYDSINKKFLLQLSGHDGGVWALKYAHGGILVSGSIDRTVRVWDIKKGCCTHVFKGHNSIVRCLDIVEYKNIKYIVTGSRDNTLHVWKLPKESSVPDHGEEHDYPLVFHTPEENPYFVGVLRGHMASVRTVSGHGNIVVSGSYDNTLIVWDVAQMKCLYILSGHTDRIYSTIYDHERKRCISASMDTTIRIWDLENIWNNGECSYATNSASPCAKILGAMYTLQGHTALVGLLRLSDKFLVSAAADGSIRGWDANDYSRKFSYHHTNLSAITTFYVSDNILVSGSENQFNIYNLRSGKLVHANILKDADQIWSVNFKGKTLVAAVEKDGQSFLEILDFSKASKINYVSNPVNSSSSSLESISTSLGLTRTTIIP
B2: the P-Sic1 pull down result in the test with phospho-Sic1 is recorded as “fully competent”. In addition, the shuffle entry in the test with cdc4Δ strain was “viable”.

B3: R572A: mutant cdc4 polypeptide (protein)
chain: MGSFPLAEFPLRDIPVPYSYRVSGGIASSGSVTALVTAAGTHRNSSTAKTVETEDGEEDIDEYQRKRAAGSGESTPERSDFKRVKHDNHKTLHPVNLQNTGAASVDNDGLHNLTDISNDAEKLLMSVDDGSAAPSTLSVNMGVASHNVAAPTTVNAATITGSDVSNNVNSATINNPMEEGALPLSPTASSPGTTTPLAKTTKTINNNNNIADLIESKDSIISPEYLSDEIFSAINNNLPHAYFKNLLFRLVANMDRSELSDLGTLIKDNLKRDLITSLPFEISLKIFNYLQFEDIINSLGVSQNWNKIIRKSTSLWKKLLISENFVSPKGFNSLNLKLSQKYPKLSQQDRLRLSFLENIFILKNWYNPKFVPQRTTLRGHMTSVITCLQFEDNYVITGADDKMIRVYDSINKKFLLQLSGHDGGVWALKYAHGGILVSGSTDRTVRVWDIKKGCCTHVFKGHNSTVRCLDIVEYKNIKYIVTGSRDNTLHVWKLPKESSVPDHGEEHDYPLVFHTPEENPYFVGVLRGHMASVRTVSGHGNIVVSGSYDNTLIVWDVAQMKCLYILSGHTDAIYSTIYDHERKRCISASMDTTIRIWDLENIWNNGECSYATNSASPCAKILGAMYTLQGHTALVGLLRLSDKFLVSAAADGSIRGWDANDYSRKFSYHHTNLSAITTFYVSDNILVSGSENQFNIYNLRSGKLVHANILKDADQIWSVNFKGKTLVAAVEKDGQSFLEILDFSKASKINYVSNPVNSSSSSLESISTSLGLTRTTIIP
For B3, the P-Sic1 pull down result with phospho-Sic1 was “no bind”; in the test with phospho-Sic1 (listed as Arg572), “inablity to bind”. In addition, the shuffle result with cdc4Δ strain was “alive”; in the test on cdc4Δ strain (listed as Arg572), “same behavior”. In addition, the entries for the “gal Sic1T33V” value in test [1] and in test [1] (listed as Arg 572) were “dead” and “same effect”, respectively. For the same molecule, in test [1], the “gal Sic1T45A” value is on record as “dead”. The “gal Sic1 wt” value in test [1] was “alive”.
